B1: Gamma-crystallin D, residues 90 to 170; numbered along this chain, P07320 (parent)
chain: IRLYEREDYRGQMIEFTEDCSCLQDRFRFNEIHSLNVLEGSWVLYELSNYRGRQYLLMPGDYRRYQDWGATNARVGSLRRV

Variants of: B1
Test: abundance fitness (aPCA) (normalised: wild type 0, dead -1); higher = more abundant; growth selection in yeast, the domain comes from the species named
Conditions: Homo sapiens

Abundance fitness: each site, then its substitutions
Y55: L 0.107; M -0.039; P -1.07; G 0.017; E 0.241; V 0.082; T 0.187; Q -0.006; F -0.044; S 0.126; C -0.061
R63: D 0.129; K 0.061; C 0.097; M 0.132; E 0.09; F 0.004; I 0.113; A 0.024; L 0.088
L47: R 0.055; G -0.027; I -0.16; S 0.074; W 0.048; D 0.147; M -0.162; V -0.142; Y -0.183; F 0.008; A -0.037; Q 0.084; H -0.072; N -0.014; P -0.989; E -0.12; K -0.221
L56: M 0.279; K 0.035; A 0.056; I 0.114; C 0.048; P 0.124; E -0.024; Q -0.054; F 0.093; S 0.14; V -0.027; Y -0.207; D 0.294; N 0.022; T 0.129; H 0.13; R 0.086; G 0.016; W 0.017
Y50: R -0.19; H -0.052; M -0.144; I -0.658; L -0.383; G -0.231; N 0.003; K -0.234; W -0.283; S -0.501; A -0.493; C -0.44; V -0.979; Q -0.197; D -0.693
W42: V 0.114; T -0.492; Y 0.166; S -0.865
D61: M -0.008; K -0.096; R -0.109; L -0.093; G 0.004; S -0.027; Q -0.038; N -0.016; I -0.332; W -0.237; H -0.25; E 0.043; V -0.07; T -0.024; F -0.094
R53: E -0.046; A 0.068; P 0.039; Y 0.026; C -0.137; Q 0.085; W -0.266; M -0.045; I -0.158; G 0.015; V -0.056; K 0.038; S 0.059; H 0.062
R51: S -0.039; L 0.034; N 0.139; F -0.147; C -0.023; K -0.037; P -0.951; Q -0.132; G 0.064; Y -0.108; T 0.056; W -0.471; H -0.122; E 0.158; V 0.025; A -0.024; I -0.321; D -0.027
L57: F -0.194; H 0.049; A -0.071; D -0.971; W -0.623; R -0.376; E -0.91; T -0.016; Y -0.13; K -0.173; C -0.029; M 0.029
P59: Y -0.222; H -0.052; W -0.083; L -0.085; D 0.14; E -0.005; C 0.011; M -0.037; A 0.088; N -0.027; Q 0.05; G 0.065; S -0.007; I -0.157; R -0.088; K -0.118; F -0.353; V -0.099
E46: M -0.095; Y -0.626; N -0.343; A -0.083; S -0.113; G -0.263; F -0.197; V -0.325; C -0.201; T -0.047; H -0.161; R -0.273; W -0.783; Q -0.012; P -0.199
